Where a chain is given by its changes, count along the chain named. In names and notes the source's numbering stands.

One data set addresses T1, CD39-L3 (Homo sapiens, UniProt O75355).
T1 sequence (O75355 1-529): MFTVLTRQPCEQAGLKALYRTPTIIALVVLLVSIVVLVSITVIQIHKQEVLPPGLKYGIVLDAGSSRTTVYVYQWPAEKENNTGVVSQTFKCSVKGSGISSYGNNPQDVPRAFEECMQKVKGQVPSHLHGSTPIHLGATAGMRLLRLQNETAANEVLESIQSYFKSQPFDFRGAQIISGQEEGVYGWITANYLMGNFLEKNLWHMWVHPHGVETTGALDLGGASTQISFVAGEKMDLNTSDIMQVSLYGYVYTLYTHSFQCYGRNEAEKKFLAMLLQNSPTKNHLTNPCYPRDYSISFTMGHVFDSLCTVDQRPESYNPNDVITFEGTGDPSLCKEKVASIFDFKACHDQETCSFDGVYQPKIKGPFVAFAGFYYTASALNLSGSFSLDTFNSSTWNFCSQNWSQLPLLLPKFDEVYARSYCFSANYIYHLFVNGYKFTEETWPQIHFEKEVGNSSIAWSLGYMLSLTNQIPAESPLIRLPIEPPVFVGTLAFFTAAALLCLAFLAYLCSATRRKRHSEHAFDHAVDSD
Briefly: ELISA titration on recombinant human CD39 isoforms. In kind it is binding. Particulars: recombinant protein coated. The method, then:
Wells were washed in TBS Tween 20, and further saturated 2H at RT in TBS Blocking buffer. Dose range concentration of primary antibody was incubated in TBS blocking buffer for 2h at RT. Wells were washed in TBS Tween 20. […] Optical density was measured on Enspire at OD=450.
For orientation: In an ELISA, binding on a coated surface is turned into a signal by an enzyme label.

Another data set concerns the target T2, CD39 (Homo sapiens, UniProt P49961).
T2 construct: cells that endogenously express CD39 at their surface, e.g. regulatory T (TReg) cells, B cells, cancer cells, lymphoma cells (e.g. Ramos cells); endogenous in cells; host or cells: Ramos human lymphoma cells
T2 sequence (P49961 1-510): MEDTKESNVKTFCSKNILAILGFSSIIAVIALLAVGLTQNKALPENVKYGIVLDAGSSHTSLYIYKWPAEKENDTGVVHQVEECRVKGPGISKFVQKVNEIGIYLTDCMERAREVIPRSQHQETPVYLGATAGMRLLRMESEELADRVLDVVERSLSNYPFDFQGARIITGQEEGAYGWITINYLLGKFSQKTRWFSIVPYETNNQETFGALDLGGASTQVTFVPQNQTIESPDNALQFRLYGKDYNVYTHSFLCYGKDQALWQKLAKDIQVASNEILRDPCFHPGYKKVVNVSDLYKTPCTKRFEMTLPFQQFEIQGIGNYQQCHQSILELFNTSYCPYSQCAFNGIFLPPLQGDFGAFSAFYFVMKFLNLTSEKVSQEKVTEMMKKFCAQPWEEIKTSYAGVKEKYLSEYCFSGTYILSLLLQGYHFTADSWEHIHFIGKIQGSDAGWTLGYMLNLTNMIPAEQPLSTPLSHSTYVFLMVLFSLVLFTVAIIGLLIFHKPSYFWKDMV
Briefly: Inhibition of CD39 enzymatic activity in Ramos cells, AMP production by Maldi TOF mass spectrometry. In kind it is cell-based. The method, then: The inhibition of CD39 enzymatic activity by antibodies was evaluated by Maldi TOF mass spectrometry (production of AMP). This assay represents an assay that is relatively insensitive to down-modulation of CD39 expression. […] After washes, cells were incubated with anti-CD39 antibodies, isotype control, or ARL and 50 μM ATP for 30 minutes at 4° C. in PBS. AMP generated is quantified in supernatants by Maldi TOP.
The inhibition of CD39 enzymatic activity by antibodies was evaluated by Maldi TOF mass spectrometry (production of AMP). Briefly, 10^5 Ramos human lymphoma cells were incubated overnight at 37° C. with anti-CD39 antibodies or a chemical CD39 inhibitor (ARL 100 μM). After washes, cells were incubated with anti-CD39 antibodies, isotype control, or ARL and 50 μM ATP for 30 minutes at 4° C. in PBS. AMP generated is quantified in supernatants by Maldi TOP. Antibodies were used at 33 nM and ARL at […].

For data set [1], the target named is T3, CD39 mutant 3 (R118A, S119A, Q120K, Q122H, E123A) (human, UniProt P49961 1-510).
T3 construct: Transfected in HEK293T cells
T3 chain: T2 sequence (P49961 1-510) with R118A, S119A, Q120K, Q122H, E123A
Nature of the data set: flow cytometry, HEK293T cells transfected with mutant 3.

B1: I-392: anti-CD39 antibody, VH SEQ ID NO: 8 and VL SEQ ID NO: 9, chimeric human IgG1 with N297Q mutation (antibody, V domains shown)
VH: QIQLVQSGPEVKKPRETVKISCKASGYTFTHYGMNWVKQAPGKGLKWMGWINTYTGEPTYADDFKGRFAFSLEASASTAYLQINNLKNEDTATYFCARRRYEGNYVFYYFDYWGQGTTLTVSS
VL: DIQMTQSPASLSASVGETVTITCRASENIYSYFSWYQQKQGKSPQLLVYTAKTLAEGVPSRFSGSGSGTQFSLKINSLQPEDFGSYYCQHHYVTPYTFGGGTKLEIK
For orientation: EC50 means the concentration that produces a half-maximal response. With B1, in the data set with CD39-L3, the “binding to CD39-L3” value is “not to any of the CD39 isoforms”. Besides, in the data set with CD39 (Ramos cells, 50 μM ATP), the maximum inhibition achieved is given as 93.4%. Moreover, in the data set with CD39 (Ramos cells, Example 6), the “blocking CD39 enzymatic activity” value is “very potent at blocking CD39 enzymatic activity”. Also, the EC50 with CD39 (read-out: EC50 (inhibition of 50% of the enzymatic activity of CD39), 100,000 Ramos cells, 50 μM ATP, n=3) came to 1.2 nM.

B2: Antibody I-391, Fc silent recombinant chimeric human IgG1 with heavy chain N297Q mutation (antibody, V domains shown)
VH: QIQLVQSGPELKKPGETVKISCKASGYTFRNYGMNWVKQAPGKGLKWMGWINTYTGEPTYADDFKGRFAFSLATSASTAYLQISNLKNEDTATYFCARKAYYGSNYYFDYWGQGTTLTVSS
VL: DIVMTQSHKFMSTSVGDRVSITCKASQDVSTAVAWYQQKPGQSPKLLIYSASYRYTGVPDRFTGSGSGTDFTFTISTVQAEDLAVYYCQQHYTTPPYTFGGGTKLEIKR
For the molecule B2, in data set [1], the binding result was “binds”.

Values taken from US20190153113A1, “CD39 VASCULAR ISOFORM TARGETING AGENTS” (INNATE PHARMA, priority 2015, published 2019).
